According to the supplement of paper PMC10065799, “High-throughput profiling of sequence recognition by tyrosine kinases and SH2 domains using bacterial peptide display” (eLife, 2023):

Legend:
Hck = Hck (UniProt P08631); assay: phosphorylation enrichment, bacterial display (enrichment ratio); higher = better substrate or ligand; peptides without Tyr show the background
c-Src = assay: as above
Jak2 = Jak2 (UniProt O60674); assay: as above
EPHB1 = EPHB1 (UniProt P54762); assay: as above
Fes = Fes (UniProt P07332); assay: as above
Fyn = Fyn (UniProt P06241); assay: as above
Chain of Fyn (P06241 whole entry, looked up): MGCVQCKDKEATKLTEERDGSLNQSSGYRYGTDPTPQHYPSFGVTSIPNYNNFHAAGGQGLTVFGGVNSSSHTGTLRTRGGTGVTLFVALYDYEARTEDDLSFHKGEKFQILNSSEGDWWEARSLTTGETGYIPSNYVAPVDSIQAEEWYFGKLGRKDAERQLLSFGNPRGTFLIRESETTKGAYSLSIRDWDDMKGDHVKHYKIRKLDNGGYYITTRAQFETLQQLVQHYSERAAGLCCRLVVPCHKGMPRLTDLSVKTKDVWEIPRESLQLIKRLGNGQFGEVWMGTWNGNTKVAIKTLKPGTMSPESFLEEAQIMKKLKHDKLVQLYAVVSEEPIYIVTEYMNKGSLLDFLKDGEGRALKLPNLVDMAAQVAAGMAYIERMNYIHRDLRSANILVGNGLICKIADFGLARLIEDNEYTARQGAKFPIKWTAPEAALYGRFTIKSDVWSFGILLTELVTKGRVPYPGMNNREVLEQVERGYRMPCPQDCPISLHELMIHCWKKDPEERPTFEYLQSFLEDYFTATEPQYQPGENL

AncSZ = assay: as above
FGFR3 = FGFR3 (UniProt P22607); assay: as above
Chain of FGFR3 (P22607 whole entry, looked up): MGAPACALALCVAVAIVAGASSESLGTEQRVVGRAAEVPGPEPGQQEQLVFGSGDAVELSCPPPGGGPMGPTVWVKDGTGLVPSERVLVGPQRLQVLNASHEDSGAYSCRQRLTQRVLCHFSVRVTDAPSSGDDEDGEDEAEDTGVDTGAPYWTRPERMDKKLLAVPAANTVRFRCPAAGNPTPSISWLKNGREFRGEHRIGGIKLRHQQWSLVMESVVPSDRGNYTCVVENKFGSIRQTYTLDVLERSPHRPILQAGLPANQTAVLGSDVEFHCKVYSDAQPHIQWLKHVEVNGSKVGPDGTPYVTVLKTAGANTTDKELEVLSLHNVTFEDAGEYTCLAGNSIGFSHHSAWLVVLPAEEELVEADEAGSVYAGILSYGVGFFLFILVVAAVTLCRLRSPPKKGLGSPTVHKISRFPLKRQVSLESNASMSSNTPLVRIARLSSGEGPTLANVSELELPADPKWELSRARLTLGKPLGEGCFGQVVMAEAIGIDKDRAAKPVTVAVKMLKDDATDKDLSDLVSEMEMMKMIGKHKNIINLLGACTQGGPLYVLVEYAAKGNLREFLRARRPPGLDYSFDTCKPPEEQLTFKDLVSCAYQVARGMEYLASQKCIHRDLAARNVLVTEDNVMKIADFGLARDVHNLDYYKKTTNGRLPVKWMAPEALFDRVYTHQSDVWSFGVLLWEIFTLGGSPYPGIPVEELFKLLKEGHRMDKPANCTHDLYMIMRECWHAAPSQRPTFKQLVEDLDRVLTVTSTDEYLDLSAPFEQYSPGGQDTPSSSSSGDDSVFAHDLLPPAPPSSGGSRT

EPHB2 = EPHB2 (UniProt P29323); assay: as above
Chain of EPHB2 (P29323 whole entry, looked up): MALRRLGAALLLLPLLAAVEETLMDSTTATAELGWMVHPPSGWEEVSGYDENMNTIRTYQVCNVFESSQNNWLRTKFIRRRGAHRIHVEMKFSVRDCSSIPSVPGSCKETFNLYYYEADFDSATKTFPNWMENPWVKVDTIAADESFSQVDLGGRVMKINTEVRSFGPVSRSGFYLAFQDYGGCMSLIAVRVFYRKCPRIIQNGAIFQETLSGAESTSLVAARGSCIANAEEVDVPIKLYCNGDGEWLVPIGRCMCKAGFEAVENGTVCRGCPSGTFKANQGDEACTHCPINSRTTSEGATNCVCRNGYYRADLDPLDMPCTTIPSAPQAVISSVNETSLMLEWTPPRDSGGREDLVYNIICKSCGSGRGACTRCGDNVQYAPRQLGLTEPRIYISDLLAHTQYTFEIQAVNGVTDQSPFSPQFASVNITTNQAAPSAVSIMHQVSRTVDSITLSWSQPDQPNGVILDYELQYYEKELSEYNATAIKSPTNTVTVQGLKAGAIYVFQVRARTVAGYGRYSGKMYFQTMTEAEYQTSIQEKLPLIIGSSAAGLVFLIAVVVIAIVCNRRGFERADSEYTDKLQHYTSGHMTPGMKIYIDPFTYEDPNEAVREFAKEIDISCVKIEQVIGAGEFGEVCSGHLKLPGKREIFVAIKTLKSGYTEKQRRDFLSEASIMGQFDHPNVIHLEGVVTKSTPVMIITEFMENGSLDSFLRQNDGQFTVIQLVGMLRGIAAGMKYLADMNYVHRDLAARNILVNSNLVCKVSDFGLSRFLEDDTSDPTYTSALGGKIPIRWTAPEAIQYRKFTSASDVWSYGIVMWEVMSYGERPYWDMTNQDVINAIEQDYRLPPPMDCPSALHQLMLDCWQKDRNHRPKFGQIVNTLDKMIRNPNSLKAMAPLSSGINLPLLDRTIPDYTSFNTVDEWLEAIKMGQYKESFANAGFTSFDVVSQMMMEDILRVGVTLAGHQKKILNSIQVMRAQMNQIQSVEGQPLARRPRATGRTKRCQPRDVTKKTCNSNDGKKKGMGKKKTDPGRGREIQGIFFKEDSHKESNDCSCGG

FGFR1 = FGFR1 (UniProt P11362); assay: as above
Chain of FGFR1 (P11362 whole entry, looked up): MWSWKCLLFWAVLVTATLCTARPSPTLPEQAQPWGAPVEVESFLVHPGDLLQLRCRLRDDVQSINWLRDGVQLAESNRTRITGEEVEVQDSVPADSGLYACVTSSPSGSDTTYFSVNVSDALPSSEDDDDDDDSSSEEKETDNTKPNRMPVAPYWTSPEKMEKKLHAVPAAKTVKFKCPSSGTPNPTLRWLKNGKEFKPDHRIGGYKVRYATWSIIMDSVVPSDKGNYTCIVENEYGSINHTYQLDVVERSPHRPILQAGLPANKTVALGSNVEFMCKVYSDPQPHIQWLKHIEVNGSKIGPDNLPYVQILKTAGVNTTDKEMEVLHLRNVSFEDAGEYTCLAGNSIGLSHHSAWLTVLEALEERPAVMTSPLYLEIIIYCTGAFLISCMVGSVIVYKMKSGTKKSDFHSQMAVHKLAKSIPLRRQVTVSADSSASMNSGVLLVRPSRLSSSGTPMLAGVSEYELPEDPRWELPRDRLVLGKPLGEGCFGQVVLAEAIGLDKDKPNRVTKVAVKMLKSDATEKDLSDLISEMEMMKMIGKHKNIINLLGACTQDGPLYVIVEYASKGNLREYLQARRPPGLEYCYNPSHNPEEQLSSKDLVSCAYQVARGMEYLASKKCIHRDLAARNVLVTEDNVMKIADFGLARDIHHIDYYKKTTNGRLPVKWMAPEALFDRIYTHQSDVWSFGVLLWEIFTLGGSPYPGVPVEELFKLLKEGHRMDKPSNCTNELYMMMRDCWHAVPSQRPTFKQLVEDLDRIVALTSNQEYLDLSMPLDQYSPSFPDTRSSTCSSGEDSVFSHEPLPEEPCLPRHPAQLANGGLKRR

Fer (mouse) = assay: as above
MERTK = MERTK (UniProt Q12866); assay: as above
Chain of MERTK (Q12866 whole entry, looked up): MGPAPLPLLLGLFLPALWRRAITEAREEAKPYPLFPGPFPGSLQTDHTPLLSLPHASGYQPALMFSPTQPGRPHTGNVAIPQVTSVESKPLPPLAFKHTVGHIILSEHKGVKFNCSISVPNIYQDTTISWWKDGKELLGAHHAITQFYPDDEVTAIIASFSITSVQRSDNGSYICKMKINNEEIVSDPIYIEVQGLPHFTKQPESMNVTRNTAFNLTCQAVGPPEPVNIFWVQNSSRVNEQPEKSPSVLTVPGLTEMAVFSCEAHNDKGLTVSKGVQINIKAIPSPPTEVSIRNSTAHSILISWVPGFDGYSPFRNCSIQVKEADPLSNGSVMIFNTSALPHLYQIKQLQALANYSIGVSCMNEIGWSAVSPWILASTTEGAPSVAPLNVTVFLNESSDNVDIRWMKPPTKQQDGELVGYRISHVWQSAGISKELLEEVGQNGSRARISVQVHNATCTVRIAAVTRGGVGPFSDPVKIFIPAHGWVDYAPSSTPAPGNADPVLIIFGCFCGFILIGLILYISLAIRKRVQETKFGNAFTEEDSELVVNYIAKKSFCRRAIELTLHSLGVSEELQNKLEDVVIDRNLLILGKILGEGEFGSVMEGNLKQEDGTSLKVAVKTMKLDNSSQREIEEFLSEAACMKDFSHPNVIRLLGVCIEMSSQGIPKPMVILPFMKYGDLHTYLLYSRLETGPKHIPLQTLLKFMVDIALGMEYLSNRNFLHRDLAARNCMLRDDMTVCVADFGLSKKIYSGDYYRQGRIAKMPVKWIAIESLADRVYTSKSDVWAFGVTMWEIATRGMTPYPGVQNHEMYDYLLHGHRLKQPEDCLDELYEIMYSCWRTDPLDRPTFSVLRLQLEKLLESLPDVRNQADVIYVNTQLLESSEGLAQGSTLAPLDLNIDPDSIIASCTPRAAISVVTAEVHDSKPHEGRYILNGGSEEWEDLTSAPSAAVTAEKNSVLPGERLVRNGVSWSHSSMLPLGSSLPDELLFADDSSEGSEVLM

c-Abl (mouse) = assay: as above
Grb2 SH2 = Grb2 SH2 (UniProt P62993); assay: SH2 binding enrichment of the phosphorylated peptide, bacterial display (enrichment ratio); higher = better substrate or ligand; peptides without Tyr show the background
Chain of Grb2 SH2 (P62993 whole entry, looked up): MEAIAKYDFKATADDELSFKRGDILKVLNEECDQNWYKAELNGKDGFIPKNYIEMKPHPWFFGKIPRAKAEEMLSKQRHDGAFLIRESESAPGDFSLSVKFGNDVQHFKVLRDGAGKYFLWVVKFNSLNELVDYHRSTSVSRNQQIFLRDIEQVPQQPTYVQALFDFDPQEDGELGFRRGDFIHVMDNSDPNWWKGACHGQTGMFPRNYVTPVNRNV

SHP2-C SH2 = assay: as above
c-Src SH2 = assay: as above
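Throughout, for SH2 binding enrichment of the phosphorylated peptide, bacterial display: peptide library displayed on the E. coli surface as eCPX fusions, selected cells deep-sequenced, score is each peptide's frequency after selection divided by its frequency in the input.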
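Throughout, for phosphorylation enrichment, bacterial display: 11-residue human phosphosite peptides and single-mutation variants displayed on the E. coli surface, counted by deep sequencing, each peptide's frequency after selection divided by its frequency in the unselected input library; frequency after pTyr selection over input frequency; kinase dosed for 20-30% of maximal phosphorylation in three min.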

Chain of Hck (P08631 whole entry, looked up): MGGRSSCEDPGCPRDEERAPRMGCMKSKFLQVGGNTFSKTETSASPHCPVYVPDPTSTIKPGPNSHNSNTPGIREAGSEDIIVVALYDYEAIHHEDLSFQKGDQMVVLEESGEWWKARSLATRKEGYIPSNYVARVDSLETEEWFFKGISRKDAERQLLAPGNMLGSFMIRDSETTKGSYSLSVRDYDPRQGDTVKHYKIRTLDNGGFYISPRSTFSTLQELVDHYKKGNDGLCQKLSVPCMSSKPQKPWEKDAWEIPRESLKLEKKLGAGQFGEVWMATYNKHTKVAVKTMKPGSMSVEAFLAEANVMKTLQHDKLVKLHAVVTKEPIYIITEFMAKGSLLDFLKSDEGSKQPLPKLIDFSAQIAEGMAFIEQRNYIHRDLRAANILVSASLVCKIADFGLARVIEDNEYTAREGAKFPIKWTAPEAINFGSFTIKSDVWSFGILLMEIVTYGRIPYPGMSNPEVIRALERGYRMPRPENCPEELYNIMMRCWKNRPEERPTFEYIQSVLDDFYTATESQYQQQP

QEIATYRRLRE [KRT17_Y384_L388R]
phosphorylation enrichment (Hck): 0.779
phosphorylation enrichment (c-Src): 0.537
phosphorylation enrichment (Jak2): 0.558
phosphorylation enrichment (EPHB1): 0.64
phosphorylation enrichment (Fes): 0.936
phosphorylation enrichment (Fyn): 0.61
phosphorylation enrichment (AncSZ): 0.734
phosphorylation enrichment (FGFR3): 0.933
phosphorylation enrichment (EPHB2): 0.557
phosphorylation enrichment (FGFR1): 0.77
phosphorylation enrichment (Fer (mouse)): 0.508
phosphorylation enrichment (MERTK): 0.798
phosphorylation enrichment (c-Abl (mouse)): 0.597
SH2 binding enrichment (Grb2 SH2): 0.75
SH2 binding enrichment (SHP2-C SH2): 0.478
SH2 binding enrichment (c-Src SH2): 0.441

EFGRRYGFSCQ [CCDC93_Y209_R213C_YF]
phosphorylation enrichment (Hck): 0.418
phosphorylation enrichment (c-Src): 0.468
phosphorylation enrichment (Jak2): 0.911
phosphorylation enrichment (EPHB1): 0.539
phosphorylation enrichment (Fes): 0.989
phosphorylation enrichment (Fyn): 0.547
phosphorylation enrichment (AncSZ): 0.914
phosphorylation enrichment (FGFR3): 0.62
phosphorylation enrichment (EPHB2): 0.504
phosphorylation enrichment (FGFR1): 0.629
phosphorylation enrichment (Fer (mouse)): 0.534
phosphorylation enrichment (MERTK): 0.491
phosphorylation enrichment (c-Abl (mouse)): 0.733
SH2 binding enrichment (Grb2 SH2): 0.856
SH2 binding enrichment (SHP2-C SH2): 0.635
SH2 binding enrichment (c-Src SH2): 0.495

IVVVPYEPPEV [TP53_Y220_S215I]
phosphorylation enrichment (Hck): 0.48
phosphorylation enrichment (c-Src): 0.386
phosphorylation enrichment (Jak2): 0.882
phosphorylation enrichment (EPHB1): 0.636
phosphorylation enrichment (Fes): 1.08
phosphorylation enrichment (Fyn): 0.43
phosphorylation enrichment (AncSZ): 1.01
phosphorylation enrichment (FGFR3): 0.665
phosphorylation enrichment (EPHB2): 0.544
phosphorylation enrichment (FGFR1): 0.511
phosphorylation enrichment (Fer (mouse)): 0.554
phosphorylation enrichment (MERTK): 0.448
phosphorylation enrichment (c-Abl (mouse)): 0.733
SH2 binding enrichment (Grb2 SH2): 0.835
SH2 binding enrichment (SHP2-C SH2): 0.763
SH2 binding enrichment (c-Src SH2): 0.811

QAEELYFGKMG [YES1_Y159_W158L]
phosphorylation enrichment (Hck): 5.82
phosphorylation enrichment (c-Src): 3.55
phosphorylation enrichment (Jak2): 1.14
phosphorylation enrichment (EPHB1): 0.861
phosphorylation enrichment (Fes): 1.55
phosphorylation enrichment (Fyn): 3.61
phosphorylation enrichment (AncSZ): 2.15
phosphorylation enrichment (FGFR3): 1.55
phosphorylation enrichment (EPHB2): 0.837
phosphorylation enrichment (FGFR1): 1.49
phosphorylation enrichment (Fer (mouse)): 0.747
phosphorylation enrichment (MERTK): 1.87
phosphorylation enrichment (c-Abl (mouse)): 2.25
SH2 binding enrichment (Grb2 SH2): 0.795
SH2 binding enrichment (SHP2-C SH2): 0.455
SH2 binding enrichment (c-Src SH2): 0.483

MTKEQYIKMNQ [ARFGEF2_Y797_R802Q]
phosphorylation enrichment (Hck): 0.443
phosphorylation enrichment (c-Src): 0.341
phosphorylation enrichment (Jak2): 0.706
phosphorylation enrichment (EPHB1): 0.38
phosphorylation enrichment (Fes): 0.805
phosphorylation enrichment (Fyn): 0.347
phosphorylation enrichment (AncSZ): 0.662
phosphorylation enrichment (FGFR3): 0.637
phosphorylation enrichment (EPHB2): 0.575
phosphorylation enrichment (FGFR1): 0.687
phosphorylation enrichment (Fer (mouse)): 0.399
phosphorylation enrichment (MERTK): 0.381
phosphorylation enrichment (c-Abl (mouse)): 0.665
SH2 binding enrichment (Grb2 SH2): 0.968
SH2 binding enrichment (SHP2-C SH2): 0.487
SH2 binding enrichment (c-Src SH2): 0.517

WGTPEYDSVVA [MAP1A_Y1883_A1881P]
phosphorylation enrichment (Hck): 0.76
phosphorylation enrichment (c-Src): 0.59
phosphorylation enrichment (Jak2): 0.895
phosphorylation enrichment (EPHB1): 0.495
phosphorylation enrichment (Fes): 1.15
phosphorylation enrichment (Fyn): 0.566
phosphorylation enrichment (AncSZ): 1.42
phosphorylation enrichment (FGFR3): 0.593
phosphorylation enrichment (EPHB2): 0.493
phosphorylation enrichment (FGFR1): 0.46
phosphorylation enrichment (Fer (mouse)): 2.73
phosphorylation enrichment (MERTK): 0.359
phosphorylation enrichment (c-Abl (mouse)): 0.723
SH2 binding enrichment (Grb2 SH2): 0.829
SH2 binding enrichment (SHP2-C SH2): 0.612
SH2 binding enrichment (c-Src SH2): 0.864

ASPALYRLDLD [TRIL_Y352]
phosphorylation enrichment (Hck): 0.617
phosphorylation enrichment (c-Src): 1.84
phosphorylation enrichment (Jak2): 0.873
phosphorylation enrichment (EPHB1): 0.818
phosphorylation enrichment (Fes): 1.16
phosphorylation enrichment (Fyn): 0.922
phosphorylation enrichment (AncSZ): 0.798
phosphorylation enrichment (FGFR3): 0.688
phosphorylation enrichment (EPHB2): 0.596
phosphorylation enrichment (FGFR1): 0.552
phosphorylation enrichment (Fer (mouse)): 0.484
phosphorylation enrichment (MERTK): 0.484
phosphorylation enrichment (c-Abl (mouse)): 0.763
SH2 binding enrichment (Grb2 SH2): 0.753
SH2 binding enrichment (SHP2-C SH2): 0.557
SH2 binding enrichment (c-Src SH2): 0.457

GENTVYAQVFN [LY9_Y603_M602V]
phosphorylation enrichment (Hck): 6.46
phosphorylation enrichment (c-Src): 5.05
phosphorylation enrichment (Jak2): 0.718
phosphorylation enrichment (EPHB1): 1.53
phosphorylation enrichment (Fes): 0.918
phosphorylation enrichment (Fyn): 6.74
phosphorylation enrichment (AncSZ): 0.819
phosphorylation enrichment (FGFR3): 0.616
phosphorylation enrichment (EPHB2): 1.23
phosphorylation enrichment (FGFR1): 0.599
phosphorylation enrichment (Fer (mouse)): 7
phosphorylation enrichment (MERTK): 2.21
phosphorylation enrichment (c-Abl (mouse)): 2.92
SH2 binding enrichment (Grb2 SH2): 0.829
SH2 binding enrichment (SHP2-C SH2): 7.82
SH2 binding enrichment (c-Src SH2): 1.03

LEYNEYFRDLN [HPRT1_Y198_D194E]
phosphorylation enrichment (Hck): 0.847
phosphorylation enrichment (c-Src): 1.14
phosphorylation enrichment (Jak2): 2.17
phosphorylation enrichment (EPHB1): 1.18
phosphorylation enrichment (Fes): 2.09
phosphorylation enrichment (Fyn): 1.01
phosphorylation enrichment (AncSZ): 2.6
phosphorylation enrichment (FGFR3): 1.75
phosphorylation enrichment (EPHB2): 0.975
phosphorylation enrichment (FGFR1): 1.89
phosphorylation enrichment (Fer (mouse)): 0.804
phosphorylation enrichment (MERTK): 0.605
phosphorylation enrichment (c-Abl (mouse)): 1.3
SH2 binding enrichment (Grb2 SH2): 0.998
SH2 binding enrichment (SHP2-C SH2): 0.592
SH2 binding enrichment (c-Src SH2): 0.451

MCDSHYLESRS [CLK1_Y56]
phosphorylation enrichment (Hck): 0.35
phosphorylation enrichment (c-Src): 0.424
phosphorylation enrichment (Jak2): 0.618
phosphorylation enrichment (EPHB1): 0.495
phosphorylation enrichment (Fes): 0.81
phosphorylation enrichment (Fyn): 0.449
phosphorylation enrichment (AncSZ): 0.578
phosphorylation enrichment (FGFR3): 0.718
phosphorylation enrichment (EPHB2): 0.535
phosphorylation enrichment (FGFR1): 0.509
phosphorylation enrichment (Fer (mouse)): 0.473
phosphorylation enrichment (MERTK): 0.426
phosphorylation enrichment (c-Abl (mouse)): 0.493
SH2 binding enrichment (Grb2 SH2): 1.04
SH2 binding enrichment (SHP2-C SH2): 0.719
SH2 binding enrichment (c-Src SH2): 0.675

FPLELYERVRI [PRKCG_Y312_M317I_YF]
phosphorylation enrichment (Hck): 1.18
phosphorylation enrichment (c-Src): 0.528
phosphorylation enrichment (Jak2): 1.39
phosphorylation enrichment (EPHB1): 1.66
phosphorylation enrichment (Fes): 1.29
phosphorylation enrichment (Fyn): 0.48
phosphorylation enrichment (AncSZ): 1.34
phosphorylation enrichment (FGFR3): 0.652
phosphorylation enrichment (EPHB2): 1.1
phosphorylation enrichment (FGFR1): 0.498
phosphorylation enrichment (Fer (mouse)): 3.28
phosphorylation enrichment (MERTK): 0.453
phosphorylation enrichment (c-Abl (mouse)): 0.739
SH2 binding enrichment (Grb2 SH2): 0.854
SH2 binding enrichment (SHP2-C SH2): 0.775
SH2 binding enrichment (c-Src SH2): 0.567

DVFVSYDCGKS [SORL1_Y139_Y141C_YF]
phosphorylation enrichment (Hck): 0.592
phosphorylation enrichment (c-Src): 0.449
phosphorylation enrichment (Jak2): 1.05
phosphorylation enrichment (EPHB1): 0.611
phosphorylation enrichment (Fes): 1.04
phosphorylation enrichment (Fyn): 0.495
phosphorylation enrichment (AncSZ): 0.969
phosphorylation enrichment (FGFR3): 0.61
phosphorylation enrichment (EPHB2): 0.518
phosphorylation enrichment (FGFR1): 0.485
phosphorylation enrichment (Fer (mouse)): 0.521
phosphorylation enrichment (MERTK): 0.371
phosphorylation enrichment (c-Abl (mouse)): 0.74
SH2 binding enrichment (Grb2 SH2): 0.964
SH2 binding enrichment (SHP2-C SH2): 0.592
SH2 binding enrichment (c-Src SH2): 0.528

MSNFAYVKREV [SCN1A_Y1694]
phosphorylation enrichment (Hck): 0.552
phosphorylation enrichment (c-Src): 0.388
phosphorylation enrichment (Jak2): 0.651
phosphorylation enrichment (EPHB1): 0.457
phosphorylation enrichment (Fes): 0.986
phosphorylation enrichment (Fyn): 0.418
phosphorylation enrichment (AncSZ): 0.729
phosphorylation enrichment (FGFR3): 0.61
phosphorylation enrichment (EPHB2): 0.437
phosphorylation enrichment (FGFR1): 0.447
phosphorylation enrichment (Fer (mouse)): 0.419
phosphorylation enrichment (MERTK): 0.471
phosphorylation enrichment (c-Abl (mouse)): 0.516
SH2 binding enrichment (Grb2 SH2): 0.797
SH2 binding enrichment (SHP2-C SH2): 0.7
SH2 binding enrichment (c-Src SH2): 0.466

ADYPDYKYRPR [SOX11_Y116]
phosphorylation enrichment (Hck): 0.505
phosphorylation enrichment (c-Src): 0.409
phosphorylation enrichment (Jak2): 0.601
phosphorylation enrichment (EPHB1): 0.48
phosphorylation enrichment (Fes): 0.718
phosphorylation enrichment (Fyn): 0.389
phosphorylation enrichment (AncSZ): 0.673
phosphorylation enrichment (FGFR3): 0.613
phosphorylation enrichment (EPHB2): 0.489
phosphorylation enrichment (FGFR1): 0.594
phosphorylation enrichment (Fer (mouse)): 0.342
phosphorylation enrichment (MERTK): 0.378
phosphorylation enrichment (c-Abl (mouse)): 0.461
SH2 binding enrichment (Grb2 SH2): 0.973
SH2 binding enrichment (SHP2-C SH2): 1.18
SH2 binding enrichment (c-Src SH2): 0.587

WCKPPYFSCAV [MMS22L_Y28]
phosphorylation enrichment (Hck): 0.432
phosphorylation enrichment (c-Src): 0.459
phosphorylation enrichment (Jak2): 0.845
phosphorylation enrichment (EPHB1): 0.506
phosphorylation enrichment (Fes): 0.908
phosphorylation enrichment (Fyn): 0.459
phosphorylation enrichment (AncSZ): 1.06
phosphorylation enrichment (FGFR3): 0.656
phosphorylation enrichment (EPHB2): 0.562
phosphorylation enrichment (FGFR1): 0.512
phosphorylation enrichment (Fer (mouse)): 0.474
phosphorylation enrichment (MERTK): 0.418
phosphorylation enrichment (c-Abl (mouse)): 0.656
SH2 binding enrichment (Grb2 SH2): 1.29
SH2 binding enrichment (SHP2-C SH2): 1.18
SH2 binding enrichment (c-Src SH2): 1.34
